{
  "source": "paper PMC3196555",
  "key": {"[1]": {"target": "myc-SH2B3 (human) (UniProt Q9UQQ2)", "test": "co-IP; 293T cells transfected with pCMV5-TrkA and a myc construct, 100 ng/ml NGF for 15 min; RIPA lysate precipitated with anti-myc antibody, blotted with anti-myc and anti-TrkA"}, "[2]": {"target": "TrkA (UniProt P35739)", "test": "co-IP; 293T cells transfected with pCMV5-TrkA and a myc construct, 100 ng/ml NGF for 15 min; RIPA lysate precipitated with anti-TrkA antibody, blotted with anti-TrkA and anti-myc"}},
  "data": [
    {"substance": "TrkA (from UniProt P35739 33-799) (receptor)", "values": [
      {"measurement": "relative amount of TrkA co-precipitated, as percent of that with SH2B1β", "setting": "[1]", "result": 10, "unit": "%"}
    ]},
    {"substance": "myc-SH2B3 (from UniProt Q9UQQ2 1-575) (natural protein)", "values": [
      {"measurement": "relative amount co-precipitated with TrkA, as percent of SH2B1β", "setting": "[2]", "result": 88, "unit": "%"}
    ]}
  ]
}
